Source: patent publication US20200247855A1 (published 2020)
Numbering of substitutions follows the chain as printed. Names may count otherwise. Like-named read-outs stand apart in the source and are kept apart here.

B1: P1156:G4S:P991 (designed binder)
chain: ADDDNELFTVQYCGMNCTKDEGGTWTGCTGKKEGCKCYHESGKNYGLCLSTEYTDFSQYGNPSDSEIEAAKPKRSDTLSHGGGGSENGEGTTQPDYDNSTDYYNYEDFKCTCPAPHLNNTNGTVMKPIGCYYTCNVTRCTAPDTYPCYNLTEHQAKNLTTSPTTLCAVGNCDHGICVPNGTKELCFKAPNLEE
B2: P991:G4S:P1156 (designed binder)
chain: ENGEGTTQPDYDNSTDYYNYEDFKCTCPAPHLNNTNGTVMKPIGCYYTCNVTRCTAPDTYPCYNLTEHQAKNLTTSPTTLCAVGNCDHGICVPNGTKELCFKAPNLEEGGGGSADDDNELFTVQYCGMNCTKDEGGTWTGCTGKKEGCKCYHESGKNYGLCLSTEYTDFSQYGNPSDSEIEAAKPKRSDTLSH
B3: P1142_AMBCA (other)
chain: KPQILQRTDHSTDSDWDPQMCPETCNPSKNISCSSECLCVTLGGGDETGTCFNMSGVDWLGHAQASDGHNDG
B4: P1243_AMBAM (other)
chain: RNHTEDNSTEYYDYEEARCACPARHLNNTNGTVLKLLGCHYFCNGTLCTAPDGYPCYNLTAQQVRTLTTYPNTSCAVGVCMKGTCVKNGTMEQCFKTP
B5: P1126_AMBCA (other)
chain: KPQILQRTDKSTDSEWDPQTCPETCIPSKNITCSDGCVCVKLGEEEEGTCFNMTGVDWLGSPSDD

Assays:
Test in all cases: BLI
CXCL8_HUMAN = CXCL8_HUMAN (human, UniProt P10145 28-99)
CXCL1_HUMAN [1] = molecular target: T1, CXCL1_HUMAN (human, UniProt P09341 35-107)
CXCL3_HUMAN [2] = molecular target: T2, CXCL3_HUMAN (human, UniProt P19876 35-107)
CCL18_HUMAN = molecular target: T3, CCL18_HUMAN (human, UniProt P55774 21-89)
T3 chain: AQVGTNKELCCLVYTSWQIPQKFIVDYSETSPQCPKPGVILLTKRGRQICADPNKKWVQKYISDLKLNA

CCL21_HUMAN = molecular target: T4, CCL21_HUMAN (human, UniProt O00585 24-134)
T4 chain: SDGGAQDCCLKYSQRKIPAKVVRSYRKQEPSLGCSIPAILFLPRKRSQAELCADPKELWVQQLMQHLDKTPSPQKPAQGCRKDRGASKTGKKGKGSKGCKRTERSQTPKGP

CCL1_HUMAN = molecular target: T5, CCL1_HUMAN (human, UniProt P22362 24-96)
T5 chain: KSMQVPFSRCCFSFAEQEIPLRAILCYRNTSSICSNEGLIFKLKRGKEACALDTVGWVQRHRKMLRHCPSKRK

CCL23_HUMAN = molecular target: T6, CCL23_HUMAN (human, UniProt P55773 22-120)
T6 chain: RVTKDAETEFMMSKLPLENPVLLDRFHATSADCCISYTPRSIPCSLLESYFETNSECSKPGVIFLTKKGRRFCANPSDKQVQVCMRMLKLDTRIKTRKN

CCL2_HUMAN = CCL2_HUMAN (human, UniProt P13500 24-99)
CCL11_HUMAN [3] = molecular target: T7, CCL11_HUMAN (human, UniProt P51671 24-97)
CCL16_HUMAN = molecular target: T8, CCL16_HUMAN (human, UniProt O15467 24-120)
T8 chain: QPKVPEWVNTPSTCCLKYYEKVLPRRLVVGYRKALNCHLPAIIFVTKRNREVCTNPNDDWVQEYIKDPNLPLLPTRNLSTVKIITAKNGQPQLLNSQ

CCL3_HUMAN = molecular target: T9, CCL3_HUMAN (human, UniProt P10147 24-92)
T9 chain: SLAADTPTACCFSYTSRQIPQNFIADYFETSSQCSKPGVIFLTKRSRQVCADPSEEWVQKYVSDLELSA

CCL14_HUMAN [4] = molecular target: T10, CCL14_HUMAN (human, UniProt Q16627 22-93)
T10 chain: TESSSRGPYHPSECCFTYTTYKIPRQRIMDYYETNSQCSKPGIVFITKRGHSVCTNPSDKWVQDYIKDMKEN

CCL22_HUMAN = molecular target: T11, CCL22_HUMAN (human, UniProt O00626 25-93)
T11 chain: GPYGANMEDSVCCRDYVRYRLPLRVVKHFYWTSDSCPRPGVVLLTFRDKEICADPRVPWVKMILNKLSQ

CCL24_HUMAN = molecular target: T12, CCL24_HUMAN (human, UniProt O00175 27-104)
T12 chain: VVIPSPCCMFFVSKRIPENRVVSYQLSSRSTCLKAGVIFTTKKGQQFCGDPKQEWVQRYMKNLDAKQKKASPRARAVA

CCL15_HUMAN = molecular target: T13, CCL15_HUMAN (human, UniProt Q16663 22-113)
T13 chain: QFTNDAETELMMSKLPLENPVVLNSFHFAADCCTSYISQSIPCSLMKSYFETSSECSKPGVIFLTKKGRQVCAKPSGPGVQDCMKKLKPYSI

CCL3L1_HUMAN = molecular target: T14, CCL3L1_HUMAN (human, UniProt P16619 24-93)
T14 chain: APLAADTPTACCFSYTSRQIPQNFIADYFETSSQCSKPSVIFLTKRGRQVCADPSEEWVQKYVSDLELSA

CCL13_HUMAN [5] = molecular target: T15, CCL13_HUMAN (human, UniProt Q99616 24-98)
CCL27_HUMAN = molecular target: T16, CCL27_HUMAN (human, UniProt Q9Y4X3 25-112)
T16 chain: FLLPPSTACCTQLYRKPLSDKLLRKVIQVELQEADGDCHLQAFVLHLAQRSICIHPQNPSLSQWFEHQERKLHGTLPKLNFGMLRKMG

CCL17_HUMAN = molecular target: T17, CCL17_HUMAN (human, UniProt Q92583 24-94)
T17 chain: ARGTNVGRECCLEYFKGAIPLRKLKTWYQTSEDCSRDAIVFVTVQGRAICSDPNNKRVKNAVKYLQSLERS

CCL7_HUMAN = CCL7_HUMAN (human, UniProt P80098 24-99)
CCL5_HUMAN = molecular target: T18, CCL5_HUMAN (human, UniProt P13501 24-91)
T18 chain: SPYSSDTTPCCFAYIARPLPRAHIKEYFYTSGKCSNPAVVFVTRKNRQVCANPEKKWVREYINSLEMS

CCL8_HUMAN [6] = molecular target: T19, CCL8_HUMAN (human, UniProt P80075 24-99)
T19 chain: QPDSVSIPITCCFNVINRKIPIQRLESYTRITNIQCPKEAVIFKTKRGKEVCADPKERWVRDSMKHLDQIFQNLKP

CCL4_HUMAN = molecular target: T20, CCL4_HUMAN (human, UniProt P13236 24-92)
T20 chain: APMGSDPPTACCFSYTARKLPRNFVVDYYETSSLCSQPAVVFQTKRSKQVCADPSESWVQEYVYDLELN

CCL4L1_HUMAN = molecular target: T21, CCL4L1_HUMAN (human, UniProt Q8NHW4 24-92)
T21 chain: T20 chain with S47G

CXCL5 [7] = molecular target: CXCL5
CXCL2 [8] = molecular target: CXCL2
CXCL5 [9] = molecular target: CXCL5; remark: listed apart in the source
CXCL2 [10] = molecular target: CXCL2; remark: listed apart in the source
CXCL6 = molecular target: CXCL6
CXCL4 = molecular target: CXCL4
CXCL10_HUMAN = CXCL10_HUMAN (human, UniProt P02778 22-98)
CXCL11_HUMAN = molecular target: T22, CXCL11_HUMAN (human, UniProt O14625 22-94)
T22 chain: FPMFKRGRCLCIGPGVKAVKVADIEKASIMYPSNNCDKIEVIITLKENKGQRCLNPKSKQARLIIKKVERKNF

CXCL7_HUMAN = molecular target: T23, CXCL7_HUMAN (human, UniProt P02775 59-128)
T23 chain: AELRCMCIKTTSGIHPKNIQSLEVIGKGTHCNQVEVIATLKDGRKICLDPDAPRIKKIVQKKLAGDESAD

CXCL1_HUMAN [11] = molecular target: T1, CXCL1_HUMAN; remark: listed apart in the source
CXCL3_HUMAN [12] = molecular target: T2, CXCL3_HUMAN; remark: listed apart in the source
CCL11_HUMAN [13] = molecular target: T7, CCL11_HUMAN; remark: listed apart in the source
CCL14_HUMAN [14] = molecular target: T10, CCL14_HUMAN
CCL13_HUMAN [15] = molecular target: T15, CCL13_HUMAN; remark: listed apart in the source
CCL8_HUMAN [16] = molecular target: T19, CCL8_HUMAN

T15 sequence (Q99616 24-98): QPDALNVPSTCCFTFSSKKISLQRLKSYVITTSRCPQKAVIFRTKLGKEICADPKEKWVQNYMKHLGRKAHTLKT
T7 sequence (P51671 24-97): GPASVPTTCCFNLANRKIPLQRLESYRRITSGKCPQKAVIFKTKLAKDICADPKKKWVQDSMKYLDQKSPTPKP
T2 sequence (P19876 35-107): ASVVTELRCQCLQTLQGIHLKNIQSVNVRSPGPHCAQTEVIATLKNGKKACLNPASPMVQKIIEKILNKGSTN
T1 sequence (P09341 35-107): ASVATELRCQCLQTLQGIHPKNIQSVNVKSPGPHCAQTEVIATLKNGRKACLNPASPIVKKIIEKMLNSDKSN
CCL2_HUMAN, sequence (P13500 24-99): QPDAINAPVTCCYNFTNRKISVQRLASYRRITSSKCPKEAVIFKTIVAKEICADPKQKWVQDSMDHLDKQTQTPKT
CXCL8_HUMAN, sequence (P10145 28-99): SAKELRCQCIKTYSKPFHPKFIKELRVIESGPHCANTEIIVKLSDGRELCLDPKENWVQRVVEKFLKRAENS
CCL7_HUMAN, sequence (P80098 24-99): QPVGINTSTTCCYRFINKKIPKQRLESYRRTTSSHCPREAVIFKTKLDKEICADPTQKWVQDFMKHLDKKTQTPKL
CXCL10_HUMAN, sequence (P02778 22-98): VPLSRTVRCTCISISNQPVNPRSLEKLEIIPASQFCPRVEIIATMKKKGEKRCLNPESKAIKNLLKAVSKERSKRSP

| Binder | Kd (CXCL8_HUMAN) [nM] | Kd (CXCL1_HUMAN [1]) [nM] | Kd (CXCL3_HUMAN [2]) [nM] | Kd (CCL18_HUMAN) [nM] | Kd (CCL21_HUMAN) [nM] | Kd (CCL1_HUMAN) [nM] | Kd (CCL23_HUMAN) [nM] | Kd (CCL2_HUMAN) [nM] | Kd (CCL11_HUMAN [3]) [nM] | Kd (CCL16_HUMAN) [nM] | Kd (CCL3_HUMAN) [nM] | Kd (CCL14_HUMAN [4]) [nM] | Kd (CCL22_HUMAN) [nM] | Kd (CCL24_HUMAN) [nM] | Kd (CCL15_HUMAN) [nM] | Kd (CCL3L1_HUMAN) [nM] | Kd (CCL13_HUMAN [5]) [nM] | Kd (CCL27_HUMAN) [nM] | Kd (CCL17_HUMAN) [nM] | Kd (CCL7_HUMAN) [nM] | also measured |
| --- | --- | --- | --- | --- | --- | --- | --- | --- | --- | --- | --- | --- | --- | --- | --- | --- | --- | --- | --- | --- | --- |
| B1 | 1.5 | 2.72 | 61.4 | 0.201 | 19.9 | 16.6 | 7 | 32.1 | 1.54 | 0.503 | 1.89 | 0.664 | 2.18 | 3.58 | 166 | 3.09 | 0.207 | 36.2 | 7.44 | 0.435 | Kd (CCL5_HUMAN): 0.754 nM; Kd (CCL8_HUMAN [6]): 7.45 nM; Kd (CCL4_HUMAN): 3.55 nM; Kd (CCL4L1_HUMAN): 1.28 nM; Kd (CXCL5 [7]): 22.7 nM; Kd (CXCL2 [8]): 25.2 nM |
| B2 | 3.56 | 5.08 | 89.9 | 0.143 | 18.2 | 7.66 | 5.13 | 24.8 | 1.39 | 0.636 | 2.22 | 0.835 | 2.36 | 3.18 | 127 | 2.91 | 0.176 | 42.6 | 5.8 | 0.287 | Kd (CCL5_HUMAN): 0.947 nM; Kd (CCL8_HUMAN [6]): 7.89 nM; Kd (CCL4_HUMAN): 3.54 nM; Kd (CCL4L1_HUMAN): 1.24 nM; Kd (CXCL5 [7]): 52.7 nM; Kd (CXCL2 [8]): 48.9 nM |
| B3 |  |  |  |  |  |  |  |  |  |  |  |  |  |  |  |  |  |  |  |  | Kd (CXCL5 [9]): 9.81 nM; Kd (CXCL2 [10]): 2.14 nM; Kd (CXCL6): 6.27 nM; Kd (CXCL4): 381 nM; Kd (CXCL10_HUMAN): 7.46 nM; Kd (CXCL11_HUMAN): 322 nM; Kd (CXCL7_HUMAN): 1.83 nM; Kd (CXCL1_HUMAN [11]): 4.61 nM; Kd (CXCL3_HUMAN [12]): 5.65 nM |
| B4 |  |  |  |  |  |  |  |  |  |  |  |  |  |  |  |  |  |  |  |  | Kd (CCL11_HUMAN [13]): 36.8 nM; Kd (CCL14_HUMAN [14]): 6.43 nM; Kd (CCL13_HUMAN [15]): 1.64 nM; Kd (CCL8_HUMAN [16]): 193 nM |
| B5 |  |  |  |  |  |  |  |  |  |  |  |  |  |  |  |  |  |  |  |  | Kd (CXCL5 [9]): 12.1 nM; Kd (CXCL2 [10]): 5.11 nM; Kd (CXCL6): 9.12 nM; Kd (CXCL4): 393 nM; Kd (CXCL10_HUMAN): 7.9 nM; Kd (CXCL11_HUMAN): 394 nM; Kd (CXCL7_HUMAN): 6.05 nM; Kd (CXCL1_HUMAN [11]): 10.5 nM; Kd (CXCL3_HUMAN [12]): 13.3 nM |
